# Results taken from publication PMC8716928, “Effect of Mutations in GvpJ and GvpM on Gas Vesicle Formation of Halobacterium salinarum” (Frontiers in Microbiology, 2021).
# T1: Fragment L1–134 of GvpL, split-GFP fusion (Halobacterium salinarum, UniProt Q9HI27 1-134)
# T1 construct: GvpL, p-vac region of Hbt. salinarum PHH1, residues 1–134 (first of two domains); source: Hfx. volcanii transformant, in cells
# T1 sequence (looked up): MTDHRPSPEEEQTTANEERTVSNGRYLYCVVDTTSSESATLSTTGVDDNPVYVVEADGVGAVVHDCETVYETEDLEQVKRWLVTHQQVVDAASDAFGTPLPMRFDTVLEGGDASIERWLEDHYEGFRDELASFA
# T2: GvpF, entire protein, split-GFP fusion (Halobacterium salinarum, UniProt Q9HI21 1-213)
# T2 construct: GvpF, p-vac region of Hbt. salinarum PHH1, 23 kDa; also called the entire GvpF; source: Hfx. volcanii transformant, in cells
# T2 sequence (looked up): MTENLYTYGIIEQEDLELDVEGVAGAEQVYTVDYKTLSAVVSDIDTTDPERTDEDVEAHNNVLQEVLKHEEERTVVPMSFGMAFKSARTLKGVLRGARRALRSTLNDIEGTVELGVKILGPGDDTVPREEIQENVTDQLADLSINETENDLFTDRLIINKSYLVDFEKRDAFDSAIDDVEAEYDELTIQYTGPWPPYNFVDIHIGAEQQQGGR
# T3: Fragment F1–110 of GvpF, split-GFP fusion (Halobacterium salinarum, UniProt Q9HI21 1-110)
# T3 construct: GvpF, p-vac region of Hbt. salinarum PHH1, residues 1–110 (first of two domains); source: Hfx. volcanii transformant, in cells
# T3 sequence (looked up): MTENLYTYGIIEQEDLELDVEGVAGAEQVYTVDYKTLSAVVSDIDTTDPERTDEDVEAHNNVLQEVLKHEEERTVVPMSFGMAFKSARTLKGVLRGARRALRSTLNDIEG
# T4: Fragment J47–114 of GvpJ, split-GFP fusion (Halobacterium salinarum, UniProt P24374 47-114)
# T4 construct: source: Hfx. volcanii transformant, in cells
# T4 sequence (looked up): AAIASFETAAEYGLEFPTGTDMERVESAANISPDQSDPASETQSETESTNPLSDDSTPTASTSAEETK
# T5: Fragment L133–281 of GvpL, split-GFP fusion (Halobacterium salinarum, UniProt Q9HI27 133-281)
# T5 construct: GvpL, p-vac region of Hbt. salinarum PHH1, residues 133–281 (second of two domains); source: Hfx. volcanii transformant, in cells
# T5 sequence (looked up): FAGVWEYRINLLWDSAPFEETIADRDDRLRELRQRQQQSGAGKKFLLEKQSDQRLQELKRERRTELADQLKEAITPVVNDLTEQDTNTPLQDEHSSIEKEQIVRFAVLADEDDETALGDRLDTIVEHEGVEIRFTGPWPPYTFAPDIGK
# T6: Fragment J1–56 of GvpJ, split-GFP fusion (Halobacterium salinarum, UniProt P24374 1-56)
# T6 construct: GvpJ, p-vac region of Hbt. salinarum PHH1, residues 1–56; source: Hfx. volcanii transformant, in cells
# T6 sequence (looked up): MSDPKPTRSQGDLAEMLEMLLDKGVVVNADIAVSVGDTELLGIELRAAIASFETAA
# B1: GvpG, split-GFP fusion (natural protein, Halobacterium salinarum, UniProt P24371 1-83, looked up)
# chain: MFIIDDLFVSPFFSLLDILQTMALDEMYDTKSIRDDIKENQLLYEVGERSDEEYQQRKQALESQLEMAEQVQEQMRDRMEVKK
# notes: GvpG, p-vac region of Hbt. salinarum PHH1; no truncation is mentioned; source: Hfx. volcanii transformant, in cells
# B2: GvpM, entire protein, split-GFP fusion of Figure 7 (natural protein, Halobacterium salinarum, UniProt P24377 1-84, looked up)
# chain: MEPTKDETHAIVEFVDVLLRDGAVIQADVIVTVADIPLIGISLRAAIAGMTTMTEYGLFEEWDAAHRQQSEAFTTSPTADRRED
# notes: GvpM, p-vac region of Hbt. salinarum PHH1; printed as 83 aa and as 84 aa; also called the entire GvpM; source: Hfx. volcanii transformant, in cells
# B3: GvpJ, entire protein, split-GFP fusion of Figure 7 (natural protein, Halobacterium salinarum, UniProt P24374 1-114, looked up)
# chain: MSDPKPTRSQGDLAEMLEMLLDKGVVVNADIAVSVGDTELLGIELRAAIASFETAAEYGLEFPTGTDMERVESAANISPDQSDPASETQSETESTNPLSDDSTPTASTSAEETK
# notes: also called the entire GvpJ; source: Hfx. volcanii transformant, in cells
# B4: Fragment A1–22 of GvpA, split-GFP fusion (peptide, UniProt P08958 1-22, looked up)
# chain: MAQPDSSGLAEVLDRVLDKGVV
# notes: GvpA, p-vac region of Hbt. salinarum PHH1, first 22 aa including α-helix 1; construct of Völkner et al. 2020; source: Hfx. volcanii transformant, in cells
# B5: GvpA, entire protein, split-GFP fusion (natural protein, Halobacterium salinarum, UniProt P08958 1-76, looked up)
# chain: MAQPDSSGLAEVLDRVLDKGVVVDVWARVSLVGIEILTVEARVVAASVDTFLHYAEEIAKIEQAELTAGAEAAPEA
# notes: GvpA, p-vac region of Hbt. salinarum PHH1, 76 aa; also called the entire GvpA; source: Hfx. volcanii transformant, in cells
# B6: GvpK, split-GFP fusion (natural protein)
# chain: not shown
# notes: GvpK, p-vac region of Hbt. salinarum PHH1; no truncation is mentioned; source: Hfx. volcanii transformant, in cells
# B7: GvpL, entire protein, split-GFP fusion of Figure 7 (natural protein, Halobacterium salinarum, UniProt Q9HI27 1-281, looked up)
# chain: MTDHRPSPEEEQTTANEERTVSNGRYLYCVVDTTSSESATLSTTGVDDNPVYVVEADGVGAVVHDCETVYETEDLEQVKRWLVTHQQVVDAASDAFGTPLPMRFDTVLEGGDASIERWLEDHYEGFRDELASFAGVWEYRINLLWDSAPFEETIADRDDRLRELRQRQQQSGAGKKFLLEKQSDQRLQELKRERRTELADQLKEAITPVVNDLTEQDTNTPLQDEHSSIEKEQIVRFAVLADEDDETALGDRLDTIVEHEGVEIRFTGPWPPYTFAPDIGK
# notes: GvpL, p-vac region of Hbt. salinarum PHH1, 32 kDa; also called the entire GvpL; source: Hfx. volcanii transformant, in cells
# B8: Fragment A44–76 of GvpA, split-GFP fusion (domain or fragment, Halobacterium salinarum, UniProt P08958 44-76, looked up)
# chain: VAASVDTFLHYAEEIAKIEQAELTAGAEAAPEA
# notes: GvpA, p-vac region of Hbt. salinarum PHH1, residues 44–76; construct of Völkner et al. 2020; source: Hfx. volcanii transformant, in cells
# B9: GvpH, split-GFP fusion (natural protein, Halobacterium salinarum, UniProt P24372 1-182, looked up)
# chain: MVPDENDDASDDQSSQLSGLLDQLHTLVEVLADIEEEGGHRHESGRIDRGNARIDYDYDVSIGLGRADGSSYDEEPSSNRSRSEQRSGQQRTTEDSIHVETRGGTSGDELVVVADLPGVTDDDVDVALDTDEQALTLRVDDDVVERVVLDRPDVAITDMTLRNQVLEIRLARTSDTDGGEST
# notes: GvpH, p-vac region of Hbt. salinarum PHH1; no truncation is mentioned; source: Hfx. volcanii transformant, in cells
# B10: Fragment M1–25 of GvpM, split-GFP fusion of Figure 7 (peptide, UniProt P24377 1-25, looked up)
# chain: MEPTKDETHAIVEFVDVLLRDGAVI
# notes: GvpM, p-vac region of Hbt. salinarum PHH1, N-terminal 25 aa; also called M25N; M(25N); source: Hfx. volcanii transformant, in cells
# B11: Fragment M60–84 of GvpM, split-GFP fusion (peptide, UniProt P24377 60-84, looked up)
# chain: EEWDAAHRQQSEAFTTSPTADRRED
# notes: GvpM, p-vac region of Hbt. salinarum PHH1, C-terminal 25 aa; also called M25C; M(25C); source: Hfx. volcanii transformant, in cells
# Target: T1, Fragment L1–134 of GvpL, split-GFP …
# Assay: split reporter (BiFC, NanoBiT); split-GFP (mGFP2) in Hfx. volcanii transformants, entire Gvp proteins and fragments (Figure 7); arrangement of the GFP portions not stated; relative fluorescence (rf) of cells against untransformed WR340
# Settings: partners not purified
row,Binder,relative fluorescence (rf)
1,B1,< 2.6 rf
2,B2,< 2.6 rf
3,B3,< 2.6 rf

# Target: T2, GvpF, entire protein, split-GFP fusion
# Assay: as above
# Settings: partners not purified
row,Binder,relative fluorescence (rf)
1,B4,41 rf
2,B5,20 rf

# Target: T3, Fragment F1–110 of GvpF, split-GFP …
# Assay: as above
# Settings: partners not purified
row,Binder,relative fluorescence (rf)
1,B4,< 4 rf
2,B5,< 4 rf

# Target: B7
# Assay: as above
# Settings: partners not purified
row,Binder,relative fluorescence (rf)
1,B6,7.4 rf
2,B1,77.5 rf

# Target: T4, Fragment J47–114 of GvpJ, split-GFP …
# Assay: as above
# Settings: partners not purified
row,Binder,relative fluorescence (rf)
1,B6,< 5 rf
2,B2,< 5 rf
3,B3,< 5 rf

# Target: T5, Fragment L133–281 of GvpL, split-GFP …
# Assay: as above
# Settings: partners not purified
row,Binder,relative fluorescence (rf)
1,B6,6.1 rf
2,B1,< 2.6 rf
3,B2,< 2.6 rf
4,B3,< 2.6 rf

# Target: T6, Fragment J1–56 of GvpJ, split-GFP fusion
# Assay: as above
# Settings: partners not purified
row,Binder,relative fluorescence (rf)
1,B7,6.7 rf

# Target: T4, Fragment J47–114 of GvpJ, split-GFP …
# Assay: as above
# Settings: partners not purified
# Remark: another data set of the same source
row,Binder,relative fluorescence (rf)
1,B8,5 rf
2,B1,15 rf
3,B9,13 rf
4,B4,5 rf
5,B10,20 rf
6,B11,20 rf
7,B7,11 rf

# Target: T6, Fragment J1–56 of GvpJ, split-GFP fusion
# Assay: as above
# Settings: partners not purified
# Remark: another data set of the same source
row,Binder,relative fluorescence (rf)
1,B4,10 rf
2,B10,20 rf
3,B11,20 rf
4,B7,20 rf
